Experimental data: the supplement of paper PMC9170038

Test system: MS2 coat protein
Assay: apparent KD of MS2 coat protein; designed switch direction (-1 OFF switch, 1 ON switch): -1; higher = weaker reporter binding
How it was run: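 RNA switches sharing common flanks were transcribed by stalled E. coli RNA polymerase on Illumina chips. A doubling series of SNAP-549-labelled MS2 coat protein, from 0.7 or 1.5 nM to 3 µM, was applied in Tris-HCl pH 7.5 buffer with KCl, MgCl2, BSA, DTT, tRNA and Tween-20. Each step lasted 0.8–1.5 h at the bottom of the series and 10–20 min at the top. Normalised cluster fluorescence was curve-fitted, giving apparent KD as the per-design median over clusters.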

[1] = input ligand: microRNA oligo, concentration not stated
[2] = Eterna round: R95, input ligand: microRNA oligo, concentration not stated

| Sequence | apparent KD of MS2 coat protein (input ligand: FMN 200 uM) [nM] | apparent KD of MS2 coat protein (input ligand: none) [nM] | also measured |
| --- | --- | --- | --- |
| CCGGCAUGGUGCGGUAGUUGUACAACAUGAGGAUCACCCAUGUAGGAUAUGCGCGUGGUCACGCCGCAGAAGGACAACGUAUGG [Random, 25% A] (Eterna round: R96, puzzle: Exclusion NG 3) | 668 | 96 | apparent KD of MS2 coat protein [1]: 89.4 nM |
| CCGGCGUCAGGAUAUCGUAGCAGGACAUUCAGUCGCGGCUAUGAGAAGGGACAUGAGGAUCACCCAUGUCCUCA [Eternabot (Original) Solution 22] (Eterna round: R97, puzzle: Exclusion 4) | 29.5 | 21.5 | – |
| CCGGUUGGCGCAGGAUAUACAUGAGGAUCACCCAUGUUGAUGAGGAUCACCCAUCAGUUUUUGUUGUAGAAGGGUGGCCCGGCC (Eterna round: R96, puzzle: Exclusion NG 2) | – | – | apparent KD of MS2 coat protein [1]: 16.2 nM |
| CCGUCCCGCCCUGGGUGGGACAUGAGGAUCACCCAUGUGGGUUUUCUUUCUUUCACCCGGGCGGGCGGGCGGGCUGG [sensor,turn-off variant1(1)] (Eterna round: R97, puzzle: Sensor, turn-off variant 1) | 20.4 | 54.8 | – |
| CCUAGUGUCGGAGGAUAUCCUACACAAACCUUAGGAGAAGGCCGACAUGAGGAUCACCCAUGUAAAACCUAAACCUAAAAUCAA [Raesusbi] (Eterna round: R96, puzzle: Exclusion NG 1) | 48.9 | 15.2 | apparent KD of MS2 coat protein [1]: 12.8 nM |
| CCUAUGUGAGGAUAUGUCUGGUCUUCUUUUAUUUUUUACAGACAGAAGGCACAUGAGGAUCACCCAUGUCAGAC [Ex4 - 3 - 48] (puzzle: Exclusion 4) | – | – | apparent KD of MS2 coat protein [2]: 23 nM |
| CCUCAACAGUAGGAUAUCAUCAAACUAUUGUGAUGAGAAGGACUGACAUGAGGAUCACCCAUGUUGACGUGAUA [Exclusion 6 - 6:b] (puzzle: Exclusion 6) | – | – | apparent KD of MS2 coat protein [2]: 47.8 nM |
| CCUCCACAUGAGGAUCACCCAUGUCAGGAUAUCGUGUGUUUUUUUUCGGUCGCGCGUGCGAGAAGGGACGUCUU (puzzle: Exclusion 1) | – | – | apparent KD of MS2 coat protein [2]: 23.7 nM |
| CCUCCGUAUUAGGAUAUCGUCCCGGAAACGGGACGAGAAGGAAUGACAUGAGGAUCACCCAUGUUAACGUGAUG [Mod of Brourd 20 - Jieux - Exclusion 6] (Eterna round: R97, puzzle: Exclusion 6) | 48.9 | 20.7 | – |
| CCUCUACAUGAGGAUCACCCAUGUGAGGAUAUAAGAUUGCGAAUUCCGCACUACGGUCUUAGAAGGCGCGUGGA [Riarve] (Eterna round: R96, puzzle: Exclusion 1) | 31.3 | 20.3 | apparent KD of MS2 coat protein [1]: 14.8 nM |
| CCUCUACAUGAGGAUCACCCAUGUGAGGAUAUAAGAUUGCGAAUUCCGCACUACGGUCUUAGAAGGCGCGUGGA [Riarve] (puzzle: Exclusion 1) | – | – | apparent KD of MS2 coat protein [2]: 15.7 nM |
| CCUCUACAUGAGGAUCACCCAUGUGAGGAUAUCAAAGUCAGAGCGGCUCUCUGACUCAUGAGAAGGUGCAUGAA [EX1 A.13] (Eterna round: R97, puzzle: Exclusion 1) | 30.6 | 21.6 | – |
| CCUCUACAUGAGGAUCACCCAUGUGAGGAUAUCAGUGCAAAGGGCACGUAUUAAAACGUGAGAAGGCACAUGGG [EX1 A.17] (Eterna round: R97, puzzle: Exclusion 1) | 88.9 | 135 | – |
| CCUCUUGGGCAAGGAUAUCCUGUGCGGUUCCGGCUCGUGUCUGUCACAUGAGGAUCACCCAUGUGGGAGAAGGUGCCUGCGGUC [Design 80] (Eterna round: R96, puzzle: Exclusion NG 2) | 13 | 16.3 | apparent KD of MS2 coat protein [1]: 10.7 nM |
| CCUGCGUGAGGAUAUACAUGAGGAUCACCCAUGUCACAAUUAACACACUCCGCCUCACGUAGAAGGCACGCAUA [Tienarra] (Eterna round: R97, puzzle: Exclusion 3) | 23.1 | 13.6 | – |
| CCUGUGUAAGGAUAUGACAAUGGUAUCUUCGGAUACCAUUGUCAGAAGGUACAUGAGGAUCACCCAUGUAACAC [Ex4-3: 13] (puzzle: Exclusion 4) | – | – | apparent KD of MS2 coat protein [2]: 14.8 nM |
| CCUUAGCGAGGAUAUACAUGAGGAUCACCCAUGUGAUCCUAAGGCUGAUCAAGCCUAUGUAGAAGGCGCAAAUC [salish99_ex3_r4_003] (Eterna round: R97, puzzle: Exclusion 3) | 180 | 442 | – |
| CCUUAGUCACAGGAUAUGCUCAUCUAAUGAUGAGCAGAAGGGUGAACAUGAGGAUCACCCAUGUUUACCAGGGU [Omei Ex6 E4] (Eterna round: R97, puzzle: Exclusion 6) | 247 | 37.1 | – |

| Sequence | apparent KD of MS2 coat protein (input ligand: FMN 200 uM) [nM] | apparent KD of MS2 coat protein (input ligand: none) [nM] | also measured |
| --- | --- | --- | --- |
| CCUUUGUCAGGAUAUCAGAAAACGCUCGUAGGGAGCGCAAAUGAGAAGGGACAUGAGGAUCACCCAUGUAAAGA [Edmareen] (puzzle: Exclusion 4) | – | – | apparent KD of MS2 coat protein (Eterna round: R95, input ligand: FMN 200 uM): 219 nM; apparent KD of MS2 coat protein [2]: 45.1 nM; apparent KD of MS2 coat protein (Eterna round: R95, input ligand: none): 60.3 nM |
| CCUUUGUCAGGAUAUCGAAAAGGGAGGCCAAAAGCCUCCGGUGAGAAGGGACAUGAGGAUCACCCAUGUGAAAA [Usleaor] (puzzle: Exclusion 4) | – | – | apparent KD of MS2 coat protein [2]: 37.9 nM |
| CGAGCUGGAGUGAGGAUAUCGUGUUCGAAAGAACGUGAGAAGGCACAUGAGGAUCACCCAUGUGAUUCAGCUCG [Omei Ex4B A4] (Eterna round: R97, puzzle: Brourd's mod of Exclusion 4) | 28 | 20.1 | – |
| CGAGGUAGAGGAUAUACGUGGAAAUAGAUUCAUGUUAAUCUACAUGAGGAUCACCCAUGUAGAAGGCUAUAGCG [JR_Ex2_Sub075] (Eterna round: R97, puzzle: Exclusion 2) | 80 | 24.9 | – |
| CGAGUGUAAGGAUAUUCGGCGCCAGGGAACAACCUAGCGUAGAAGAAGGUACAUGAGGAUCACCCAUGUGGUUA [Riatees] (puzzle: Exclusion 4) | – | – | apparent KD of MS2 coat protein [2]: 151 nM |
| CGAUAAAGCUGAGGAUAUGAGAAUAGAAAGAAAUCAGAAGGCAGACAUGAGGAUCACCCAUGUGAGUUCUCGAGAUUACAUGGU [Prohibition 46 - Jieux - Exclusion NG 1] (Eterna round: R96, puzzle: Exclusion NG 1) | – | – | apparent KD of MS2 coat protein [1]: 112 nM |
| CGAUGCUCGUGCCCACAUGAGGAUCACCCAUGUCGAGUCAGCGAGGAUAUCGGUGGCACAUAGUACGAGAAGGCGCGGACCUGA [Ex NG3 #18] (Eterna round: R96, puzzle: Exclusion NG 3) | 17.7 | 17 | apparent KD of MS2 coat protein [1]: 11.5 nM |
| CGAUGUUAUGUCAGGAUAUGCAUUGCGAAAGCAAUGCAGAAGGGACAUGAGGAUCACCCAUGUCCUAACCAUCG [Omei A 4] (puzzle: Brourd's mod of Exclusion 4) | – | – | apparent KD of MS2 coat protein [2]: 11.1 nM |
| CGAUGUUGUGUCAGGAUAUGCGUUGCGAAAGCAAUGUAGAAGGGACAUGAGGAUCACCCAUGUUCUAACCAUCG [Omei A 9] (puzzle: Brourd's mod of Exclusion 4) | – | – | apparent KD of MS2 coat protein [2]: 11.2 nM |
| CGCUGGACAGGAUAUGUUCUUGAGCACUUGAGGAUCACCCAAGUCAUCAAGAACUCAGGCACAGAAGGGUUUAUGG [salish99_ex5_r4_016] (Eterna round: R97, puzzle: Exclusion 5) | 24.6 | 13.4 | – |
| CGCUGGACAGGAUAUGUUCUUGGGCACUUGAGGAUCACCCAAGUCAUCAAGAAAACAGGCACAGAAGGGUUUAUGG [salish99_ex5_r4_020] (Eterna round: R97, puzzle: Exclusion 5) | 32.1 | 24.1 | – |
| CGCUGGUGAGGAUAUGGGUGUGGUUACAUGAGGAUCACCCAUGUGGUGUCGCAUGUGGGUCCAGAAGGCGCGGGUG [-25.2, -23.4 kcal, 17% A] (Eterna round: R97, puzzle: Exclusion 5) | 856 | 585 | – |
| CGGACACCAGUAGGAUAUGUAGGAUAUGUUGUUGAGGAUCACCCAACAAAUUAAACGACAGAAGGACAGAAGGACUGUUCUCCU [pwkr exNG2 2xFMN 1xF5.2] (Eterna round: R96, puzzle: Exclusion NG 2) | 18.6 | 24.7 | apparent KD of MS2 coat protein [1]: 14.5 nM |
| CGGAGUUAGGAGGAUAUGACGAACGCACGUCGUUCAGAAGGCCUAACAUGAGGAUCACCCAUGUGCUUAACACG [Eternabot (L2) Solution 59] (Eterna round: R97, puzzle: Exclusion 6) | 48.7 | 35.7 | – |
| CGGAUGUUAGGAUAUUAGUAGUAGUCAGAAAAGACUAUUACUGAGAAGGAACAUGAGGAUCACCCAUGUUUCCG [Mat - Exclusion 4 - Eli Mod - D44] (Eterna round: R97, puzzle: Exclusion 4) | 17 | 15.4 | – |
| CGGCGACAUGAGGAUCACCCAUGUGAGGAUAUGACGGGAAAAGCGUGAGCAGUUUGUAUCAGAAGGCGGGUAGG [salish99_ex1_r4_080] (Eterna round: R97, puzzle: Exclusion 1) | 37.2 | 33.6 | – |
| CGGCGGGUCGCGCUGGUCCACAUGAGGAUCACCCAUGUUCCGGCACGCUGAAGGCACACGCUUUUUGCUCGUCUUAU [Sensor V1 S1] (Eterna round: R97, puzzle: Sensor, turn-off variant 1) | 32.2 | 35 | – |
| CGGGCCGGCCUUCCGGCCGGCCCGACAUGAGGAUCACCCAUGUAGGAUAUCCCGGCUGCCGGCCGGGAGAAGGGCGUGCGUCCU [-50.4, -49.5 kcal, 14% A] (Eterna round: R96, puzzle: Exclusion NG 3) | 101 | 91.6 | apparent KD of MS2 coat protein [1]: 53.6 nM |
